# The supplement of paper PMC9112550, “Optimization of the antimicrobial peptide Bac7 by deep mutational scanning” (BMC Biology, 2022)
# System: Escherichia coli TOP10
# Experiment: shrunken log2 fold change of peptide-encoding DNA abundance (4.5 h post-induction vs induction); higher = less antimicrobial activity (less host growth inhibition)
# Details: time post-induction: 4.5 h; library: site-saturation at positions 5, 18, 19, 20
# 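Also: peptides expressed intracellularly from a pBAD plasmid library in pooled LB shake-flask culture, induced with 0.3% L-arabinose, DNA abundance read by NGS, three biological replicates, DESeq2 with apeglm shrinkage.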
row,Sequence,shrunken log2 fold change
1,RRIRDRPPRLPRPRPRPWIVPRP,0.0145
2,RRIRIRPPRLPRPRPRPDPRPRP,0.132
3,RRIRLRPPRLPRPRPRPVHAPRP,0.178
4,RRIRFRPPRLPRPRPRPFAAPRP,0.114
5,RRIRGRPPRLPRPRPRPWPGPRP,0.265
6,RRIRPRPPRLPRPRPRPERIPRP,0.152
7,RRIRSRPPRLPRPRPRPLLGPRP,0.0218
8,RRIRGRPPRLPRPRPRPVQFPRP,0.535
9,RRIRDRPPRLPRPRPRPDNYPRP,-0.117
10,RRIRARPPRLPRPRPRPYAQPRP,-0.181
11,RRIRYRPPRLPRPRPRPKEDPRP,-0.122
12,RRIRVRPPRLPRPRPRPDIMPRP,-0.18
13,RRIRDRPPRLPRPRPRPTHFPRP,-0.0613
14,RRIRYRPPRLPRPRPRPVTAPRP,-0.298
15,RRIRCRPPRLPRPRPRPYTRPRP,-0.669
16,RRIRPRPPRLPRPRPRPSRPPRP,0.133
17,RRIRWRPPRLPRPRPRPRYCPRP,-0.139
18,RRIRDRPPRLPRPRPRPSFCPRP,-0.0945
19,RRIRKRPPRLPRPRPRPNVYPRP,-0.0771
20,RRIRYRPPRLPRPRPRPINSPRP,-0.184
21,RRIRYRPPRLPRPRPRPQDFPRP,-0.481
22,RRIRTRPPRLPRPRPRPAANPRP,0.0922
23,RRIRKRPPRLPRPRPRPFHLPRP,0.0215
24,RRIRQRPPRLPRPRPRPDLRPRP,-0.0102
25,RRIRYRPPRLPRPRPRPDNAPRP,-0.0635

row,Sequence,shrunken log2 fold change
1,RRIRSRPPRLPRPRPRPSHSPRP,-0.706
2,RRIRHRPPRLPRPRPRPGEMPRP,0.257
3,RRIRKRPPRLPRPRPRPPCDPRP,0.415
4,RRIRCRPPRLPRPRPRPLNHPRP,0.519
5,RRIRARPPRLPRPRPRPFDKPRP,-0.107
6,RRIRARPPRLPRPRPRPAWPPRP,0.582
7,RRIRIRPPRLPRPRPRPLYGPRP,-0.702
8,RRIRVRPPRLPRPRPRPEGCPRP,0.132
9,RRIRVRPPRLPRPRPRPMVLPRP,-0.19
10,RRIRCRPPRLPRPRPRPQVWPRP,-0.0474
11,RRIRHRPPRLPRPRPRPGSQPRP,0.0187
12,RRIRNRPPRLPRPRPRPVIHPRP,-0.0797
13,RRIRVRPPRLPRPRPRPMTSPRP,-0.128
14,RRIRMRPPRLPRPRPRPHVMPRP,-0.192
15,RRIRLRPPRLPRPRPRPGRDPRP,0.26
16,RRIRNRPPRLPRPRPRPRAYPRP,0.0694
17,RRIRQRPPRLPRPRPRPFGIPRP,-0.138
18,RRIRWRPPRLPRPRPRPEAWPRP,1.02
19,RRIRKRPPRLPRPRPRPSRPPRP,0.529
20,RRIRTRPPRLPRPRPRPITEPRP,-0.183
21,RRIRARPPRLPRPRPRPHRQPRP,0.29
22,RRIRLRPPRLPRPRPRPIIAPRP,-0.0536
23,RRIRCRPPRLPRPRPRPTGTPRP,0.0453
24,RRIRDRPPRLPRPRPRPYKGPRP,-0.00133
25,RRIRMRPPRLPRPRPRPMMKPRP,0.0962

row,Sequence,shrunken log2 fold change
1,RRIRERPPRLPRPRPRPRQEPRP,0.315
2,RRIRNRPPRLPRPRPRPQRQPRP,0.0149
3,RRIRTRPPRLPRPRPRPAHFPRP,0.13
4,RRIRGRPPRLPRPRPRPHWRPRP,0.203
5,RRIRMRPPRLPRPRPRPVEHPRP,-0.00663
6,RRIRSRPPRLPRPRPRPCDHPRP,-0.138
7,RRIRRRPPRLPRPRPRPFCVPRP,1.05
8,RRIRPRPPRLPRPRPRPYDMPRP,-0.748
9,RRIRTRPPRLPRPRPRPPYPPRP,0.0259
10,RRIRNRPPRLPRPRPRPCMWPRP,-0.0288
11,RRIRFRPPRLPRPRPRPGAFPRP,-0.162
12,RRIRSRPPRLPRPRPRPSVPPRP,-0.634
13,RRIRERPPRLPRPRPRPPGDPRP,0.619
14,RRIRMRPPRLPRPRPRPISWPRP,0.109
15,RRIRLRPPRLPRPRPRPCWAPRP,-0.0392
16,RRIRERPPRLPRPRPRPNNQPRP,-0.59
17,RRIRNRPPRLPRPRPRPQRCPRP,0.0227
18,RRIRSRPPRLPRPRPRPKLWPRP,0.564
19,RRIRWRPPRLPRPRPRPMQAPRP,1.83
20,RRIRVRPPRLPRPRPRPWIEPRP,-0.104
21,RRIRIRPPRLPRPRPRPRPTPRP,0.152
22,RRIRERPPRLPRPRPRPCCKPRP,-0.267
23,RRIRIRPPRLPRPRPRPARSPRP,0.0389
24,RRIRMRPPRLPRPRPRPFLIPRP,-0.34
25,RRIRVRPPRLPRPRPRPRPVPRP,0.515
